Measured values: patent US12281162 (LANOVA MEDICINES DEVELOPMENT, dated 2025)
Where a chain is given by its changes, count along the chain named.

B1: 58F9G10 (antibody, V domains shown)
VH: EVQLQQSGPELVKTGASVKISCKASGYSFTGYYIHWVKQSHGKSLEWIGYISCYNGATSFNQKFKGKATFTVDTSSSTAYMQFNSLTSEDSAVYYCARTELRGPWFAYWGQGTLVTVSA
VL: QTVLTQSPAIMSASPGEKVTMTCSASSSVSYMNWYQQKSGTSPKRWIYDTSKLASGVPARFSGSGSGTSYSLTISSMEAEDAATYYCQQWSNNPLTFGAGTKLELK
notes: murine antibody from hybridoma supernatant
B2: 37B9C4 (antibody, V domains shown)
VH: EVNLEESGGGLVQPGGSMKLSCVASGFTFSDYWMNWVRQSPEKGLEWVAEIRLKSNNYATHYAESVKGRFTISRDDSKSSVYLQMNNLRAEDTGIYYCTRPLLWFRRYYAMDYWGQGTSVTVSS
VL: DIQMTQTTSSLSASLGDRITISCSASQGISNYLNWYQQKPDGTVKLLIYYTSSLHSGVPSRFSGSGSGTDYSLTISNLEPADIATYYCQQYSKLPFTFGSGTKLEIK
notes: as for B1
B3: 34D3H1 (antibody, V domains shown)
VH: EVHLVESGGDLVKPGGSLKLSCAASGFTFSSYGMSWVRQTPDKRLEWVATISSGGSYTYYPDSVKGRFTISRDNAKNTLNLQMSSLKSEDTAMYYCARQGGDAMDYWGQGTSVTVSS
VL: DIVLTQSPATLSVTPGDSVSLSCRASQSINNNLHWYQQKSHESPRLLIKYASQSISGIPSRFSGSGSGTDFTLSINSVETEDFGMYFCQQSNSRLTFGAGTKLELK
notes: as for B1
B4: 14C2A11C6 (antibody, V domains shown)
VH: QVHLQQSGAELARPGASVKMSCKASGYTFTTYTMHWVKQRPGQGLEWIGYINPNSAYTNYNQKFKDKATLTADKSSSTAYMQLSSLTSEDSAVYYCARRVLLLRVLDFFDYWGQGTTLTVSS
VL: DVQITQSPSYLAASPGETITINCRASKSINKYLTWYQEKPGKTNKLLIYSGSTLQSGIPSRFSGSGSGSDFTLTISSLEPEDFAMYYCQQHNEYPLTFGTGTKLELK
notes: murine antibody from hybridoma supernatant; also called 14C2A1106
B5: 6G10D9 (antibody, V domains shown)
VH: QVQLQQSGAELARPGASVKMSCKASGYTFTTYTMHWVKQRPGQGLEWLGYINPSSGYTNYNQKFKDKATLTAGKSSSTAYMQLSSLTSEDSAVYYCASLRSRGYFDYWGQGTTLTVSS
VL: DIVMTQSQTFMSTSVGDRVRITCKASQNVGTAVVWYQQKTGQSPRLLIYSASNRYTGVPDRFTGSGSGTDFTLTISNMQSEDLADFFCQQYSSYPYTFGGGTKLEIK
notes: as for B1
B6: 38A10E9A11 (antibody, V domains shown)
VH: B5 VH with L48I, Q110R
VL: B5 VL with T9K, M11L, R20S, V34A, T40P, R45K, D85G, F86Y
notes: as for B1
B7: 2D3C12 (antibody, V domains shown)
VH: QVQLQQSGAELVRPGTSVKVSCKASGYAFINYLIEWIKQRPGQGLEWIGMINPGSGGTNYNEKFKDKATLTADKSSSTAYMQLSSLTSDDSAVYFCARNWDVWGQGTTLTVSS
VL: DVVMTQSPLSLPVSLGDQASVSCRSSQSLVHSTGNTYLHWYLQKPGQSPKLLIYKVSNRFSGVPDRFSGSGSGTDFTLKISRVEAEDLGVYFCSQSTHVPWTFGGGTKLEIK
notes: as for B1
B8: 21C3C11B3 (antibody, V domains shown)
VH: B7 VH
VL: B7 VL
notes: as for B1
B9: 34D4A10 (antibody, V domains shown)
VH: B7 VH with N31S
VL: B7 VL
notes: as for B1
B10: 58-H2L2 (antibody, V domains shown)
VH: QVQLVQSGAEVKKPGASVKVSCKASGYSFTGYYIHWVRQAPGQGLEWIGYISSYNAATSFNQKFKGRVTFTVDTSTSTVYMELSSLRSEDTAVYYCARTELRGPWFAYWGQGTLVTVSS
VL: DTQMTQSPSSLSASVGDRVTITCSASSSVSYMNWYQQKPGKAPKRLIYDTSKLASGVPSRFSGSGSGTDYTLTISSLQPEDFATYYCQQWSNNPLTFGQGTKLEIK
notes: humanized 58F9G10, VH v2 x VL v2
B11: 58-H1L3 (antibody, V domains shown)
VH: B10 VH with I48M, F70M, V72R
VL: B10 VL with M4L, I21M, L77M
notes: humanized 58F9G10, VH v1 x VL v3
B12: 58-H3L3 (antibody, V domains shown)
VH: B10 VH with R38K, L83F
VL: B10 VL with M4L, I21M, L77M
notes: humanized 58F9G10, VH v3 x VL v3
B13: 58-H4L2 (antibody, V domains shown)
VH: B10 VH with V20I, R38K, V68A, V79A, L83F, T91S
VL: B10 VL
notes: humanized 58F9G10, VH v4 x VL v2
B14: 58-H2L3 (antibody, V domains shown)
VH: B10 VH
VL: B10 VL with M4L, I21M, L77M
notes: humanized 58F9G10, VH v2 x VL v3
B15: 58-H3L2 (antibody, V domains shown)
VH: B10 VH with R38K, L83F
VL: B10 VL
notes: humanized 58F9G10, VH v3 x VL v2
B16: 58-H2L1 (antibody, V domains shown)
VH: B10 VH
VL: B10 VL with T2I, R45L, Y70F
notes: humanized 58F9G10, VH v2 x VL v1
B17: 58-H4L1 (antibody, V domains shown)
VH: B10 VH with V20I, R38K, V68A, V79A, L83F, T91S
VL: B10 VL with T2I, R45L, Y70F
notes: humanized 58F9G10, VH v4 x VL v1
B18: 58-H1L2 (antibody, V domains shown)
VH: B10 VH with I48M, F70M, V72R
VL: B10 VL
notes: humanized 58F9G10, VH v1 x VL v2
B19: 58-H4L3 (antibody, V domains shown)
VH: B10 VH with V20I, R38K, V68A, V79A, L83F, T91S
VL: B10 VL with M4L, I21M, L77M
notes: humanized 58F9G10, VH v4 x VL v3
B20: 40A5B2 (antibody, V domains shown)
VH: EVQLQQSGPELVKPGASVKMSCKASGYTFTRNIMHWVKQKPGQGLEWIGYINPYNAGSKYNEKFKGKATLTSDISSSTAYMELSSLTSEDSAVYYCAREEVYYRYGAWFAYWGHGTLVTVSA
VL: DIVLTQSPASLAVSLGQRATISCRASQSVSTSSYSYMHWYQQKPGQPPKLLIKYASNLESGVPARFSGSGSGTDFTLNIHPVEEEDTATYYCQHSWEIPRTFGGGTKLEIK
notes: as for B1
B21: 29B2C10 (antibody, V domains shown)
VH: EVQLQQSGPELVKPGASMKLSCKASGYSFTGYTMHWVKQSHGENLEWIGLINPYNGGTNYNQKFKGKATLTVDKSSSTAYMELLSLTSEDSAVYYCSRWGLRRAMDYWGQGTSVTVSS
VL: DIVMTQSQKFMSTSVGDRVSVTCKASQNVGSNVAWYQQKPGQSPKALIYSASYRYSGVPDRFTGNGSGTDFTLTISNVQSEDLAEYFCQQYYNSPWTFGGGTKLEIK
notes: as for B1
B22: 26E1D12 (antibody, V domains shown)
VH: B21 VH with L20I, H35N, E43K, T71A, E82D
VL: B21 VL with N65S, Y92N
notes: as for B1
B23: 29A7H11H4C12 (antibody, V domains shown)
VH: B21 VH with L20I
VL: B21 VL with V15I
notes: as for B1
B24: 14F3H2 (antibody, V domains shown)
VH: B21 VH with L20I, H35N, E43K, T58I, N59R, S97A
VL: B21 VL with S31T, N65S, Y92N, N93S
notes: as for B1

Experiments:
[1] = target: T1, human G-protein-coupled receptor family C group 5 member D (GPRC5D) (human, UniProt Q9NZD1 1-345); assay: FACS, CHO-K1/human GPRC5D, hybridoma supernatant
T1 construct: whole, on cells; also called human GPRC5D protein
Method: Antibodies harvested from the supernatants of the hybridomas were tested for their binding to the human GPRC5D protein expressed on CHO K1 cells was tested. CHO—K1 cells stably expressed human GPRC5D, were harvested from flasks. 100 µl of 1×10^6 cells/ml of cells were incubated with murine antibodies in 3-fold serial dilutions for 30 minutes on ice. After being washed with 200 µl of FACS buffer twice, cells were incubated with secondary antibody for 30 minutes on ice. Cells were washed with 200 µl of FACS buffer twice and transferred to BD Falcon 5 ml tube and analyzed by FACS.

[2] = target: T1, human G-protein-coupled receptor family …; assay: FACS, CHO-K1/GPRC5D

T1 sequence (Q9NZD1 whole entry): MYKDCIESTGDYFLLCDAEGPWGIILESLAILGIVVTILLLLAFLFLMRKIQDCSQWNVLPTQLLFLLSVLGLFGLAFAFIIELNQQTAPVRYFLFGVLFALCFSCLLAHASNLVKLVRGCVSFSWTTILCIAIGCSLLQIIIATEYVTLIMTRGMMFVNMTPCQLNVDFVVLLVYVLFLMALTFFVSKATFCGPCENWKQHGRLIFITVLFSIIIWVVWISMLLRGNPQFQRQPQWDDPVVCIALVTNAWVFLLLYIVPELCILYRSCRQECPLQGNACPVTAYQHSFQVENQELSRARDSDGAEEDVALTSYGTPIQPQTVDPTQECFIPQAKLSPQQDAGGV

Row | Binder | Bottom [1] | LogEC50 [1] | Span [1] | Top [1] | Bottom [2] | LogEC50 [2] | Span [2] | Top [2]
1 | B1 | -14700 | 0.964 | 2.07e+06 | 2.05e+06 | – | – | – | –
2 | B2 | 10900 | 0.592 | 1.75e+06 | 1.76e+06 | – | – | – | –
3 | B3 | -13300 | 0.884 | 1.43e+06 | 1.41e+06 | – | – | – | –
4 | B4 | 5570 | 0.993 | 723000 | 729000 | – | – | – | –
5 | B5 | 6870 | 0.912 | 1.42e+06 | 1.43e+06 | – | – | – | –
6 | B6 | 24000 | 0.947 | 1.76e+06 | 1.79e+06 | – | – | – | –
7 | B7 | 46100 | 0.454 | 789000 | 835000 | – | – | – | –
8 | B8 | 57000 | 0.654 | 1.45e+06 | 1.51e+06 | – | – | – | –
9 | B9 | 2740 | 1.02 | 919000 | 922000 | – | – | – | –
10 | B10 | – | – | – | – | 4840 | 0.345 | 103000 | 108000
11 | B11 | – | – | – | – | 4230 | 0.231 | 101000 | 105000
12 | B12 | – | – | – | – | 4020 | 0.318 | 93700 | 97700
13 | B13 | – | – | – | – | 4600 | 0.341 | 100000 | 105000
14 | B14 | – | – | – | – | 1230 | 0.27 | 90500 | 91700
15 | B15 | – | – | – | – | 5980 | 0.374 | 99500 | 105000
16 | B16 | – | – | – | – | 3620 | 0.378 | 106000 | 110000
17 | B17 | – | – | – | – | 4990 | 0.365 | 99600 | 105000
18 | B18 | – | – | – | – | 5500 | 0.263 | 109000 | 114000
19 | B19 | – | – | – | – | 6250 | 0.287 | 96400 | 103000
20 | B20 | 25400 | 0.511 | 1.17e+06 | 1.2e+06 | – | – | – | –
21 | B21 | 68600 | 0.62 | 1.54e+06 | 1.61e+06 | – | – | – | –
22 | B22 | 52700 | 0.225 | 625000 | 678000 | – | – | – | –
23 | B23 | 43400 | 0.738 | 1.42e+06 | 1.46e+06 | – | – | – | –
24 | B24 | 20400 | 0.874 | 852000 | 873000 | – | – | – | –
